The values that follow come from patent US20250215091A1, “Anti-GAL3 Antibodies and Compositions” (Les Laboratoires Servier, priority 2022, published 2025).

Assay [1] deals with murine model of HOCI-induced fibrosis. As to the kind of experiment: HOCI-induced murine fibrosis model: skin and lung collagen (Picrosirius red). It counts as in vivo, mice. The note with it: first experiment. As to the method: (§1) In a first experiment, control mice (n=12) received a daily intradermal injection of 300 μL of sterile phosphate buffer saline (PBS) for 5 consecutive days per week, for a duration of 42 days. HOCI alone and HOCI with antibody (HOCI-antibody) treated mice (n=12 per group) received a daily intradermal injection of 300 μL of HOCI for 5 consecutive days per week, for a duration of 42 days. Antibody-treated mice also received a subcutaneous injection of 20 mg/kg antibody, starting at day minus one and every 5 days between day 5 and day 40. Each antibody was solubilized in sterile, endotoxin-free PBS before injection. In a second experiment, the same protocol was applied, except that duration of the study was 63 days and antibodies were given every 7 days starting at day minus 1 until day 62.
(§2) Mice that received daily injection of HOCI were also treated by intratracheal instillation of 0.5 mg/kg of TD139 compound (HOCI-TD139), a small molecule Gal3 inhibitor. In a first experiment, the administrations started from day 21 and the compound was given every 3 days until day 39. In a second experiment, the administrations started from day 20 and the compound was given every 3 days until day 62. TD139 was initially dissolved in 100% DMSO then diluted 50-fold in endotoxin-free PBS before administration.
At the day of study termination of the first experiment (day 42), skin and lung samples were taken, formalin-fixed and processed to individual paraffin wax blocks. Sections of skin and lung were cut from the blocks and, after rehydration, stained with Picrosirius Red coloration according to the manufacturer's protocol. Subsequently, each slide was examined and remotely analyzed employing the web-based Image J software

Assay [2] deals with genes differentially regulated between HOCI group and control group in whole blood cells. In words: HOCI-induced murine fibrosis model: whole blood RNA sequencing. It counts as in vivo, mice. The note with it: of 510 genes differentially regulated HOCI vs control; day 42, whole blood. As to the method:
as §1, §2
In the first experiment, global gene expression was examined at day 42 in whole blood cells by RNA sequencing.
Whole blood was collected in RNA protect tubes (Qiagen) and were processed for RNA extraction using the RNeasy Protect Animal blood kit with the optional on-column DNAse I digestion. Total RNA samples were quantified on Nanodrop 2000 (ThermoFisher Scientific™) and analyzed on Bioanalyzer (Agilent) using RNA 6000 Nano chips to determine RNA quality (RIN). Total RNA matching the QC criteria were included in the study. Purified RNA samples were used as input for the TruSeq Strand-specific RNA-seq (poly A selection and globin depletion) according to manufacturer's protocol (Illumina). […]
Raw reads were processed using the in-house RNAExp Expression pipeline 2.1 and the quality was assessed using FastQC tools. Then, reads were trimmed for adaptors using Cutadapt and trimmed reads were aligned to mouse mm39 reference genome using the STAR aligner. Aligned data were evaluated for quality using Samtools and Picard tools. Then, aligned reads per gene were quantified using FeatureCount. […] Read count were normalized by the variance stabilizing transformation vst function from DESeq2 R package.
55,416 genes were detected in the data. […] Genes differentially expressed between groups were determined using a linear model (ImFit function from limma R package) on vst transformation gene expression dataset. […]

B1: E07: anti-Gal3 monoclonal antibody, IgG1 format; VH SEQ ID NO 42, VL SEQ ID NO 43 (antibody, V domains shown)
VH: EVQLVESGGSLVKPGGSLRLSCAASGFTFSNYNMNWVRQAPGKGLEWISNIYGSSRYIYYADFVKGRFTISRDNAKNSLYLQMNSLRAEDTAVYYCVRSYYGGMDVWGRGTLVTVSS
VL: QSVLTQPASVSGSPGQSITISCAGTSSDVGGYYSVSWYQQHPGKAPKLMIYYDSNRPSGVSNRFSGSKSGNTASLTISGLQAEDEADYYCSSYTGYSTRVFGGGTKLEIK
Turning to B1, the lung collagen levels result in assay [1] (day 42, FIG. 8A) is given as “restored lung collagen levels to those of control mice, reaching statistical significance”. In addition, the skin collagen levels result in assay [1] (day 42, vs HOCI group, FIG. 8B) is reported as “non significant downward trend”. In assay [2], the “number of HOCI-dysregulated genes counteracted by treatment” value was 445 genes and the “percentage of HOCI-dysregulated genes counteracted by treatment” value is on record as 87.2%.
